In the supplement of paper PMC9732359:
± gives the uncertainty stated by the source.

Assay: protein stability index of a GFP-peptide fusion (yeast GPS) (PSI 1-4); higher = more stable; sorted into four equal gates, so the index is relative within each strain
In short: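 Peptides tiling yeast proteins in 17-residue segments were fused downstream of GFP, with Cherry expressed from the same plasmid. As a pooled library in yeast, mid-log cultures grown in leucine-free medium were sorted into four equal gates by GFP/Cherry fluorescence ratio. Gate plasmids were PCR-amplified and Illumina-sequenced, and barcodes linked reads to strains. Each peptide received a protein stability index equal to the sum of each gate's read frequency times its gate number.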

| Sequence | protein stability index (doa10∆) | protein stability index (pdr5∆) | protein stability index (san1∆) | protein stability index (ubr1∆) |
| --- | --- | --- | --- | --- |
| SVDESARIKDAFITQLE [YJL039C/NUP192] | 3.03 ± 0.12 | 2.61 ± 0.17 | 2.9 ± 0.16 | 2.87 ± 0.11 |
| SVDICNNSKSRYPMNLL [ECM29] | 1.86 ± 0.1 | 2.35 ± 0.056 | 2.71 ± 0.077 | 1.31 ± 0.079 |
| SVEWMKVSPSMCGVIVK [SIN4] | 1.74 ± 0.055 | 1.69 ± 0.051 | 1.69 ± 0.091 | 1.54 ± 0.063 |
| SVHLIECYKQLFLTAPD [YCS4] | 1.52 ± 0.24 |  |  |  |
| SVINNYLREDQMIDTSI [NUT1] | 2.99 ± 0.074 | 3.32 ± 0.1 | 3.32 ± 0.083 | 2.84 ± 0.082 |
| SVIQLCGGINDSIPYPQ [ECM29] | 3.16 ± 0.17 | 2.59 ± 0.23 | 2.57 ± 0.13 | 2.88 ± 0.078 |
| SVIVDSKVTVPPSKHST [ESC2] | 2.75 ± 0.11 | 2.93 ± 0.089 | 2.72 ± 0.092 | 2.81 ± 0.049 |
| SVKPHVVEPEHMADAKI [SIR4] | 2.68 ± 0.14 | 2.92 ± 0.14 | 3.1 ± 0.1 | 3 ± 0.17 |
| SVLLQQLLTPGSKISSN [YGL172W/NUP49] | 2.46 ± 0.093 | 2.83 ± 0.089 | 3.09 ± 0.099 | 2.56 ± 0.14 |
| SVLNPFLLRRVKADVEK [ISW2] | 1.15 ± 0.14 | 1.09 ± 0.068 | 1.18 ± 0.15 | 1.31 ± 0.12 |
| SVMDPITSKRKAELLLK [DIS3] | 2.83 ± 0.088 | 2.76 ± 0.12 | 2.55 ± 0.12 | 2.85 ± 0.085 |
| SVPLMINAKNIAFASNY [RRP43] | 1.57 ± 0.06 | 1.53 ± 0.051 | 1.27 ± 0.14 | 1.41 ± 0.052 |
| SVPLVIGQFLEPIDQNT [RPT3] | 1.88 ± 0.11 | 2.77 ± 0.095 | 2.95 ± 0.13 | 2.71 ± 0.067 |
| SVQINVAKVDEEGRAIP [RPS21A] | 3.28 ± 0.065 | 3.23 ± 0.089 | 3.31 ± 0.048 | 3.32 ± 0.043 |
| SVSPQMNAILTDVKLTL [SMD1] | 2.85 ± 0.047 | 2.85 ± 0.062 | 2.83 ± 0.04 | 3 ± 0.057 |
| SVTIISAGNDKMVKAWN [ASC1] | 2.35 ± 0.22 |  |  |  |
| SVVSQIEKGSTFGINLI [FAS1] | 3.09 ± 0.2 | 3.06 ± 0.11 | 3 ± 0.08 | 3.26 ± 0.076 |
| SWRNITNLSGGEKTLSS [SMC4] | 3.37 ± 0.13 | 3.21 ± 0.078 | 2.81 ± 0.098 | 3.01 ± 0.11 |
| SYAVSPYAQKPLQGIFH [QCR8] | 2.51 ± 0.082 | 2.4 ± 0.061 | 2.54 ± 0.054 | 2.6 ± 0.052 |
| SYDVENVNSRNQLVEPN [SRB5] | 3.21 ± 0.12 | 3.26 ± 0.14 | 3.42 ± 0.13 | 3.34 ± 0.12 |
| SYPILNESSTFLKLVLS [SIN4] | 1.97 ± 0.035 | 2.27 ± 0.034 | 2.11 ± 0.05 | 2.22 ± 0.031 |
| SYPVNGSQKTFEIDDEH [RPS6A] | 2.98 ± 0.13 | 2.72 ± 0.12 | 2.81 ± 0.12 | 2.99 ± 0.12 |
| SYRNAFTNVLTKYSDVL [YJL039C/NUP192] | 2.12 ± 0.052 | 1.72 ± 0.059 | 2.36 ± 0.066 | 2.13 ± 0.048 |
| SYVVPRLYLKDQTNHIE [ECM29] | 2.62 ± 0.076 | 1.83 ± 0.046 | 2.83 ± 0.056 | 2.15 ± 0.033 |
| TAAYARTIGIAVDHRRQ [RPL13A] | 1.58 ± 0.077 | 1.58 ± 0.05 | 1.22 ± 0.088 | 1.77 ± 0.055 |
| TAEFGKILAGLHDTQIE [RPN10] | 3.23 ± 0.11 | 3.44 ± 0.11 | 3.13 ± 0.14 | 3.02 ± 0.1 |
| TANALPLPAVFSAPIRP [RPL4A] | 1.79 ± 0.042 | 2.1 ± 0.042 | 1.87 ± 0.065 | 1.98 ± 0.04 |
